These results are taken from patent publication US20160053258.

The target in series [1] is T1, 6×HIS-LIN28A (157-209), Q9H9Z2.
T1 chain: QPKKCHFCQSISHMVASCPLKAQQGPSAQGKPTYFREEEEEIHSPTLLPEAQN

Series [2] has as its target T2, 6×HIS-LIN28A-K135R, Q9H9Z2.
T2 chain: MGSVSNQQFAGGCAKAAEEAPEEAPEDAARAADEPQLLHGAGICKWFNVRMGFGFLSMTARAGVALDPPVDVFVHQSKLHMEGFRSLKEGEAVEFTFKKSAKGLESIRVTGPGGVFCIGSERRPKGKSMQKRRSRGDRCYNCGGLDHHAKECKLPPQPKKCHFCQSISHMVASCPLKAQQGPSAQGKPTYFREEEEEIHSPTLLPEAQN

The target of series [3] is T3, full-length 6×HIS-LIN28B, Q6ZN17.
T3 chain: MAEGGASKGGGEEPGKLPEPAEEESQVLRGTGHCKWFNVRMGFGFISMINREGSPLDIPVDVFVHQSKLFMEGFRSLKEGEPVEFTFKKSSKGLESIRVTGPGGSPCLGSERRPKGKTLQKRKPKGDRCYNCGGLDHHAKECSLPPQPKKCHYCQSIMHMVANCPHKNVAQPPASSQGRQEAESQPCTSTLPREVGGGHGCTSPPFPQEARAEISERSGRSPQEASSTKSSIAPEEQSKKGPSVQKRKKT

Series [4] addresses T4, 6×HIS-LIN28A (1-124), Q9H9Z2.
T4 chain: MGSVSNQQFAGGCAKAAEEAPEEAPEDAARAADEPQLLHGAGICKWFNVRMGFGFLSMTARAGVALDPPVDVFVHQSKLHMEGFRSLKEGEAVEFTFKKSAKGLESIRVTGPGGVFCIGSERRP

Series [5] deals with T5, 6×HIS-LIN28A (125-209), Q9H9Z2.
T5 chain: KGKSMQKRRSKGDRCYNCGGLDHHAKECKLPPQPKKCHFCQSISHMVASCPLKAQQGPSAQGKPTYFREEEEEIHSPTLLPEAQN

In series [6] the target is T6, 6×HIS-LIN28A (125-156), Q9H9Z2.
T6 chain: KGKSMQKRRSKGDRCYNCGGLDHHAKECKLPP

For series [7], the target named is T7, 6×HIS-labeled human LIN28A (full-length), Q9H9Z2.
T7 chain: T2 chain with R135K

Numbering of substitutions follows the chain as printed.

B1: recombinant full-length SET7/9 expressed in bacteria (protein)
chain: MDSDDEMVEEAVEGHLDDDGLPHGFCTVTYSSTDRFEGNFVHGEKNGRGKFFFFDGSTLEGYYVDDALQGQGVYTYEDGGVLQGTYVDGELNGPAQEYDTDGRLIFKGQYKDNIRHGVCWIYYPDGGSLVGEVNEDGEMTGEKIAYVYPDERTALYGKFIDGEMIEGKLATLMSTEEGRPHFELMPGNSVYHFDKSTSSCISTNALLPDPYESERVYVAESLISSAGEGLFSKVAVGPNTVMSFYNGVRITHQEVDSRDWALNGNTLSLDEETVIDVPEPYNHVSKYCASLGHKANHSFTPNCIYDMFVHPRFGPIKCIRTLRAVEADEELTVAYGYDHSPPGKSGPEAPEWYQVELKAFQATQQK
Consider B1, for which the “methylation (in vitro methyl transferase assay)” value in series [1] is “LIN28A (1-124) and (157-209) without lysine 135 were not methylated”; in series [2], “a methylation reaction by SET7/9 was completely removed in K135 mutant”; in series [4] it was “LIN28A (1-124) and (157-209) without lysine 135 were not methylated”; in series [5] it was “only LIN28A (125-209) and (125-156) having lysine 135 among 4 fragments were methylated by SET7/9”; in series [6], “only LIN28A (125-209) and (125-156) having lysine 135 among 4 fragments were methylated by SET7/9”. For the same protein, the “methylation (in vitro methyl transferase analysis)” value in series [3] was “LIN28B was not methylated by SET7/9”. Further, the “enzyme activity (in vitro methyltransferase assay with [3H] SAM)” value in series [7] is on record as “all HMTases except for SET7/9 did not show enzyme activity with respect to LIN28A”. Also, the “methylation (in vitro methyltransferase assay with [3H] SAM)” value in series [7] is “LIN28A was methylated by SET7/9 in vitro”.
